Measurements from article PMC5123862.

Legend:
[1] = molecular target: Wild-type PCNA (human) (human) (UniProt P12004)
[2] = test system: DNA polymerase delta (pol δ), exonuclease-deficient (human); assay: fluorescence anisotropy; conditions: 10 mM Mg2+; estimated from partial binding curve, single measurements; 25 mM TrisOAc pH 7.7, 10 mM Mg(OAc)2, 125 mM KOAc, 0.1 mg/ml BSA, 1 mM DTT, ionic strength adjusted to 200 mM with KOAc, room temperature
[3] = test system: DNA polymerase eta (pol η) (human); assay: fluorescence anisotropy; conditions: 10 mM Mg2+; 25 mM TrisOAc pH 7.7, 10 mM Mg(OAc)2, 125 mM KOAc, 0.1 mg/ml BSA, 1 mM DTT, ionic strength adjusted to 200 mM with KOAc, room temperature
[4] = test system: DNA polymerase eta (pol η);Cy5-PCNA (human;human); assay: FRET; conditions: pol η titrated onto Cy5-PCNA loaded by RFC (100 nM each), 1 mM ATP; 3'-biotin (Neutravidin bound); 25 mM TrisOAc pH 7.7, 10 mM Mg(OAc)2, 125 mM KOAc, 0.1 mg/ml BSA, 1 mM DTT, ionic strength adjusted to 200 mM with KOAc, room temperature
[5] = test system: DNA polymerase delta (pol δ), exonuclease-deficient;Cy5-PCNA (human;human); assay: FRET; conditions: 3'-biotin (Neutravidin bound); 25 mM TrisOAc pH 7.7, 10 mM Mg(OAc)2, 125 mM KOAc, 0.1 mg/ml BSA, 1 mM DTT, ionic strength adjusted to 200 mM with KOAc, room temperature; cited from earlier work
[6] = molecular target: Cy3-pol η (human DNA polymerase eta, full length, N-terminally labeled with Cy3) (human) (UniProt Q9Y253); assay: FRET or BRET; competitive inhibition: pre-assembled Cy3-Pol η•Cy5-PCNA complex (200 nM Cy3-Pol η, 20 nM Cy5-PCNA) titrated with unlabeled competitor (PCNA, (Ub)3-PCNA or pol η, 0-5 μM); dose-response model, Ki from IC50 by the Munson-Rodbard solution; room temperature; replication assay buffer, ionic strength 200 mM
Cy3-pol η (human DNA polymerase eta, full length, N-terminally labeled with Cy3) (human), sequence (Q9Y253 whole entry): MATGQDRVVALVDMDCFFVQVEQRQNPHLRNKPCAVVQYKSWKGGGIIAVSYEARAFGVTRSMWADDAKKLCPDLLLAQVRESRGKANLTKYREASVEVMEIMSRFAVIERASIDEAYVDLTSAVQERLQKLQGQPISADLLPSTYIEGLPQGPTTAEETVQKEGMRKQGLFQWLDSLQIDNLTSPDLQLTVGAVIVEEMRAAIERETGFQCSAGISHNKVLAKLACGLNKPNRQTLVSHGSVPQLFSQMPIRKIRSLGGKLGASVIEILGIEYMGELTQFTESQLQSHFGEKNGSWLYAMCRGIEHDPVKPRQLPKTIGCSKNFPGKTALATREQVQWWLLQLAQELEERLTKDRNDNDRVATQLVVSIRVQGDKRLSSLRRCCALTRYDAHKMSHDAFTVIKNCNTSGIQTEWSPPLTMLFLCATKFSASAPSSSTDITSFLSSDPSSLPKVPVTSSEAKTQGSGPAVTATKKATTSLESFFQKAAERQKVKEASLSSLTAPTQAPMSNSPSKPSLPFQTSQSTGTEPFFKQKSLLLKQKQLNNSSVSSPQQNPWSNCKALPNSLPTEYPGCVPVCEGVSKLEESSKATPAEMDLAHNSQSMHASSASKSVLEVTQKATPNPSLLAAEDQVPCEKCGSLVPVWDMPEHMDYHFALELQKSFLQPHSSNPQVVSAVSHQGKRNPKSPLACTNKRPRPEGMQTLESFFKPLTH

Wild-type PCNA (human) (human), sequence (P12004 whole entry): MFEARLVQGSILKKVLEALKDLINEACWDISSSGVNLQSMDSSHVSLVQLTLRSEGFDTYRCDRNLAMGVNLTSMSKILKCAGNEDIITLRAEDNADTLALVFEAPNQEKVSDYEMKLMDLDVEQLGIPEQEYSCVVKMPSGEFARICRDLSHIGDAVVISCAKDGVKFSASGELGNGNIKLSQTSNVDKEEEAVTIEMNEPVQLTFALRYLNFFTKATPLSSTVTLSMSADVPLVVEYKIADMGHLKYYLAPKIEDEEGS

“Exonuclease-deficient human DNA polymerase delta (D402A in the catalytic POLD1 subunit) (from UniProt P28340 1-1107) (complex)” showed a probability of insertion (Pi) of pol δ in single turnover primer extension on TT P/T DNA in the presence of PCNA (plateau i = 15 to i = 25); no DNA synthesis without PCNA [1] of 0.999.

Work on FLUOR-P/T DNA yielded a Kd [2] of 537 nM and a Kd [3] of 29.7 nM.

In the case of Forked Cy3-P/T DNA, the Kd [4] is listed as 28 nM and the Kd [5] is listed as less than 10 nM.

For “Monoubiquitinated PCNA ((Ub)3-PCNA): a single ubiquitin moiety on K164 of each monomer within a homotrimeric clamp ring (from UniProt P12004 1-261; P0CG48 1-76) (complex)”, the Ki [6] was 119 nM.
